Where no end group is shown, it is not given here.
Key:
[1] = target: SNCG (Homo sapiens, UniProt O76070); assay: Co-immunoprecipitation of EGFP-ANK deletion peptides with anti-SNCG antibody; assay type: binding; parameters: expressed in transfected cells; host or cells: MCF7-SNCG (MCF7 stably expressing SNCG); conditions: MCF7-neo and MCF7-SNCG clones transfected with pEGFP-ANK deletion peptide plasmids
[2] = tested on: MCF7-Neo cells; assay: Microinjection of ANK peptide then nocodazole, mitotic arrest/apoptosis count; assay type: cell-based; conditions: cells without ANK injection, 0.5 μM nocodazole for 24 hours
Protocol: ANK peptide interference with SNCG-BubR1 association in vivo was examined in a stable breast cancer cell line MCF7 expressing SNCG (MCF7-SNCG) and a control SNCG negative cell line (MCF7-Neo). […] Significant numbers of cells survived after treatment with the ANK peptide by microinjection in both cell lines. After microinjection, cells were treated with 0.5 μM nocodazole for 24 hours and the fraction of mitotically arrested cells was counted.
MCF7-SNCG and MCF-Neo were grown to 80% confluence, split with trypsin and seeded on a 22 mm glass coverslip treated with human fibronectin ([…]) into 60 mm diameter dishes containing cell maintenance medium for 24 hours and utilized for the experiments. In initial experiments ANK peptide (5, 10 or 100 μM) was microinjected. In all further experiment to date, ANK peptide (10 μM), together with goat IgG (1 mg/ml) and fluoroscein isothiocyanate (FITC, 5 mg/ml; Molecular Probes) into the MCF7-SNCG or MCF7-Neo cells under a 40× magnification of phase contrast microscope (Carl Zeiss Inc.) using a pressure injection system (Femtojet, Eppendorf). To exclude the possibility that microinjection might affect cell cycle and proliferation, MCF7-Neo and MCF7-SNCG were microinjected with goat IgG as a control. Injections were done at a constant flow setup by varying the injection pressure Pc between 40-70 units. The microscope stage was kept at 37° C. using thermal control device (Tempcontrol-37-2 Digital). Approximately 25-30 cells were microinjected in each experiment (n=3). Cells were quickly incubated to revive. […]
For the immunofluorescence experiments, cells were fixed in 0.5% buffered paraformaldehyde for 8 minutes at room temperature. […] Cells were scored by identifying cells containing Alexa Fluor 488 excited at 488 nm, and the emission measured at 500-535 nm; DAPI was excited at 345 nm and the emission was measured at 445 nm. […] Mitotic index was determined as described by Gupta et al. (Oncogene 2003 22:7593-7599) and Inaba et al. Breast Cancer Res. Treat. […]

[3] = target: T1, glutathione S-transferase (GST)-SNCG fusion protein (human, UniProt O76070 1-127); assay: ITC, ANK peptide titrated into GST-SNCG, sequential binding site model, first binding site
T1 construct: Expressed in E. coli BL21 (DE3), eluted with reduced glutathione; Used as analyte in SPR, in the cell in ITC and as bait in the GST pull-down; not shown: glutathione S-transferase tag encoded by the pGEX-4T-3 vector (Amersham Biosciences); vector linker with thrombin site between GST and the BamH1 site
T1 sequence (O76070 whole entry, the tested form may be a part): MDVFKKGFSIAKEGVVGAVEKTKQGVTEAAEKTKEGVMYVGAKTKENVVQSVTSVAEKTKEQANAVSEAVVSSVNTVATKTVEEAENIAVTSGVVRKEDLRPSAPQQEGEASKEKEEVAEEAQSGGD

[4] = target: T1, glutathione S-transferase (GST)-SNCG …; assay: SPR, ANK peptide immobilised, GST-SNCG analyte, global fit, two-phase reaction (conformation change) model, kd2
[5] = target: T2, synuclein-gamma (SNCG), recombinant, released from GST-SNCG by thrombin (human, UniProt O76070 1-127); assay: intrinsic tyrosine fluorescence of 30 µM SNCG titrated with ANK peptide
T2 construct: 15N-labelled for NMR; also called native SNCG; Breast Cancer Specific Gene 1
T2 sequence (O76070 whole entry): as the sequence (O76070 whole entry, the tested form may be a part) above

[6] = target: T1, glutathione S-transferase (GST)-SNCG …; assay: SPR, ANK peptide immobilised, GST-SNCG analyte, global fit, two-phase reaction (conformation change) model, kd1
[7] = target: T3, glutathione S-transferase (GST) (UniProt P08515 1-218 = GST); assay: SPR (BIACORE 3000), ANK peptide immobilised, GST as analyte
T3 construct: Control for GST-SNCG in SPR
T3 sequence (P08515 whole entry): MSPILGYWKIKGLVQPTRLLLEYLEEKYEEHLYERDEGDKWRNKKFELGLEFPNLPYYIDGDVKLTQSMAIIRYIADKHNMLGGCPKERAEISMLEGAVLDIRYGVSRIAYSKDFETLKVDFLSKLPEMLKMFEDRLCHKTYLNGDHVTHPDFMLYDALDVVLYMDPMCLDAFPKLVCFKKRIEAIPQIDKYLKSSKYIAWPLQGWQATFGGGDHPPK

[8] = target: T1, glutathione S-transferase (GST)-SNCG …; assay: SPR, ANK peptide immobilised, GST-SNCG analyte, apparent overall Kd
[9] = target: SNCG expressed in cells (MCF7-SNCG, T47D, or COS7 transfected with pCI-SNCG) (UniProt O76070 1-127, limits assumed); assay: cell-based or functional assay
Sequence of SNCG expressed in cells (MCF7-SNCG, T47D, or COS7 transfected with pCI-SNCG) (O76070 whole entry, stated change not applied): as the sequence (O76070 whole entry, the tested form may be a part) above

Sequence of SNCG (O76070 whole entry): as the sequence (O76070 whole entry, the tested form may be a part) above

Molecule: EGFP-ANK deletion peptide P12: EGFP fusion of deletion peptide P12 GNSALHVASQHG, expressed from pEGFP-C2 plasmid in cells (not fully specified (N-terminus); also: EGFP fusion protein (recombinant))
- interaction with SNCG by co-IP [1]: identified to interact

Molecule: COC(=O)Nc1nc2ccc(C(=O)c3cccs3)cc2[nH]1 [nocodazole, reference compound]
- degree of mitotic arrest in MCF7-Neo cells as compared to MCF7-SNCG cells [2]: significantly higher degree of mitotic arrest

Molecule: EGFP-ANK deletion peptide P8: EGFP fusion of deletion peptide P8 GANVTMQN, expressed from pEGFP-C2 plasmid in cells (not fully specified (N-terminus); also: EGFP fusion protein (recombinant))
- interaction with SNCG by co-IP [1]: identified to interact

B1: ANK peptide KGNSALHVASQHGHLGCIQTLVRYGANVTMQNHG (SEQ ID NO:1) (peptide)
peptide: Ac-KGNSALHVASQHGHLGCIQTLVRYGANVTMQNHG-NH2
notes: For SPR it was immobilised on a CM5 chip by ligand thiol coupling; also called ankyrin repeat-like peptide
- Kd [3]: 70 µM
- ΔH [3]: 2.17 kcal/mol
- koff [4]: 0.000802 s⁻¹
- Kd [5]: ~100 µM
- koff [6]: 0.014 s⁻¹
- binding result [7]: no binding
- Kd [8]: 73.4 µM

Molecule: KGNSALHVASQHGHLGCIQTLVRYGANVTMQNHG (other, not shown: large carriers, not fully specified (N-terminus); also: EGFP fusion protein (recombinant)) [enhanced green fluorescent protein (EGFP)-ANK fusion protein]
- apoptotic cell populations (DAPI staining) after paclitaxel [9]: 5 fold
- apoptotic/dead cell population, flow cytometric cell cycle analysis after 0.5 µM paclitaxel, MCF7-SNCG cells [9]: ~4 fold
- positive phosphorylated histones (anti-phospho-H3 staining, flow cytometry), MCF7-SNCG cells [9]: 3.5 fold

Reference: patent publication US7897568B2, “Compositions for treatment of cancer” (priority 2006, dated 2011)
